According to paper PMC9780748:

Tests used:
Assay in all cases: potentiometry
[1] = target: Glu303 (UniProt position 303, …); settings: 298 K; 0.1 M NaClO4; none (HClO4/KOH); free peptide (0.5 mM), no metal
[2] = target: Cterm310 (UniProt position 310, GQLHCT-----); settings: 298 K; 0.1 M NaClO4; none (HClO4/KOH); free peptide (0.5 mM), no metal
[3] = target: Tyr189 (UniProt position 189, …); settings: 298 K, 0.04 M sodium dodecyl sulfate (no other salt stated), none (HClO4/KOH)
[4] = target: Arg187 (UniProt position 187, …); settings: 298 K; 0.04 M sodium dodecyl sulfate (no other salt stated); none (HClO4/KOH); free peptide (0.5 mM) in SDS, no metal
[5] = target: Arg76 (UniProt position 76, …); settings: 298 K, 0.1 M NaClO4, none (HClO4/KOH)
[6] = target: Lys79 (UniProt position 79, …); settings: 298 K, 0.1 M NaClO4, none (HClO4/KOH)
[7] = free peptide (0.5 mM) in SDS, no metal
[8] = Ni(II) complex, metal:peptide 1:1, 0.5 mM peptide
[9] = Zn(II) complex, metal:peptide 1:1, 0.5 mM peptide
[10] = free peptide (0.5 mM), no metal

PNCHTHEGGQLHCT [Aspf2 (Asp f 2 zincophore) C-terminal fragment 297-310, Ac-PNCHTHEGGQLHCT (Aspergillus fumigatus)]
pKa [1]: 4.24
pKa [2]: 3.08

MHRLYHVPAVGQGWVDHFAD [Aspf2 (Asp f 2 zincophore) fragment 185-204, Ac-MHRLYHVPAVGQGWVDHFAD-NH2 (Aspergillus fumigatus)]
pKa ([3]; Zn(II) complex, metal:peptide 1:1, 0.5 mM peptide, in SDS): 9.56
pKa [3, 7]: 10.12
pKa [4]: 11.24

MHRLYHVP [Aspf2 (Asp f 2 zincophore) fragment 185-192, Ac-MHRLYHVP-NH2 (Aspergillus fumigatus)]
pKa [3, 7]: 9.56
pKa [4]: 11.21

ARHAKAH [Aspf2 (Asp f 2 zincophore) fragment 75-81, Ac-ARHAKAH-NH2 (Aspergillus fumigatus)]
pKa [5, 8]: 11.38
pKa [5, 9]: 11.79
pKa [5, 10]: 11.14
pKa [6, 8]: 9.87
pKa [6, 9]: 9.75
pKa [6, 10]: 9.79
